Test results: the supplement of paper PMC7125110
± gives the standard error. Variants at the floor of the assay were thinned out.

B1: glmS ribozyme (parent)
chain: AUAAAAGCGCCAGAACUACAGAAAUGUAGUUGACGAGGAGGAGGUUUAUCGAAUUUUCGGCGGAUGCCUCCAAA

How the values were obtained:
Conditions in all cases: with glucosamine-6-phosphate
glucosamine-6-phosphate [1] = variants of: B1; assay: self-cleavage kobs at 640 uM GlcN6P; higher = faster cleavage; RNA array
Procedure, shortened: (§1)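 Weighted Michaelis–Menten fits across concentrations supplied kcat and KM, based on kobs from one- or two-exponential decay fits to normalised per-tile medians. The data came from barcoded ribozyme variants transcribed in situ by E. coli RNA polymerase on sequenced MiSeq chips and tracked at 37 °C by a hybridised Cy3 probe. Glucosamine-6-phosphate (40 μM to 10 mM) in HEPES/KCl/Mg(OAc)2 buffer was flowed in.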

glucosamine-6-phosphate [2] = variants of: B1; assay: self-cleavage kobs at 2500 uM GlcN6P; higher = faster cleavage; RNA array
Procedure, shortened: as §1

glucosamine-6-phosphate [3] = variants of: B1; assay: self-cleavage kobs at 10000 uM GlcN6P; higher = faster cleavage; RNA array
Procedure, shortened: as §1

Row | Variant | self-cleavage kobs at 640 uM GlcN6P (glucosamine-6-phosphate [1]) [s⁻¹] | self-cleavage kobs at 2500 uM GlcN6P (glucosamine-6-phosphate [2]) [s⁻¹] | self-cleavage kobs at 10000 uM GlcN6P (glucosamine-6-phosphate [3]) [s⁻¹]
1 | A33U A39U G41C G43A C70G | < 1e-05 | – | –
2 | U30C C34U U57A | < 1e-05 | – | –
3 | A15G C58A U69G | 0.000122 ± 3.7e-05 | 8.9e-05 ± 2.5e-05 | –
4 | C11U U30C C71A | 0.000112 ± 2.4e-05 | 6.85e-05 ± 2.1e-05 | –
5 | A15U G35U G59A | < 1e-05 | – | –
6 | C11U U54G C58A C67G | 0.000225 ± 7.2e-05 | 5.14e-05 ± 2e-05 | –
7 | G32C G51C A64G C70U | < 1e-05 | – | –
8 | A12C G29A G43U C71G | < 1e-05 | < 1e-05 | –
9 | G13U G63A C71U | < 1e-05 | < 1e-05 | –
10 | G29C G43U A48G C71A | < 1e-05 | < 1e-05 | –
11 | A12U C67U C71G | 7.19e-05 ± 2.7e-05 | 6.07e-05 ± 1.3e-05 | 4.02e-05 ± 2e-05
12 | A14U A36U U69G | 0.000169 ± 6.2e-05 | 0.000194 ± 5.8e-05 | 5.55e-05 ± 1.8e-05
13 | G29A U45G | 0.000156 ± 4.7e-05 | 0.000503 ± 0.00012 | –
14 | U31G A36U G38U A48U A53C G59C A64C | < 1e-05 | – | –
15 | A12C U56G G66U | 0.000122 ± 2e-05 | 0.000363 ± 8e-05 | –
16 | G32U G41A C68A | < 1e-05 | – | –
17 | C11G A42U G63U | < 1e-05 | – | –
18 | U30C G32U G44A A48C U57A | < 1e-05 | < 1e-05 | –
19 | A12C U54G C68G | 4.37e-05 ± 1.2e-05 | 5.51e-05 ± 1.5e-05 | –
20 | C19A A33U | 4.59e-05 ± 2.2e-05 | 0.000114 ± 2.6e-05 | –
21 | C11G G41C U45G | < 1e-05 | – | –
22 | A23C C68U | 0.00205 ± 0.00047 | 0.00111 ± 0.00026 | –

Row | Variant | self-cleavage kobs at 640 uM GlcN6P (glucosamine-6-phosphate [1]) [s⁻¹] | self-cleavage kobs at 2500 uM GlcN6P (glucosamine-6-phosphate [2]) [s⁻¹] | self-cleavage kobs at 10000 uM GlcN6P (glucosamine-6-phosphate [3]) [s⁻¹]
23 | U30C A33G A52G | < 1e-05 | – | –
24 | A15G U47G U55G C70A | 0.000102 ± 1.7e-05 | – | –
25 | G29A A39G U54A | 0.00173 ± 0.00059 | 0.00457 ± 0.0012 | –
26 | U30C A53U U57G A64C U69G | 0.000129 ± 3.2e-05 | 0.000128 ± 5.2e-05 | –
27 | G13C A15C A52U G66C | < 1e-05 | – | –
28 | G29U A53C | 0.00015 ± 7.4e-05 | 0.00118 ± 0.00032 | 0.000874 ± 0.00028
29 | A15G U54A G66C | 0.000369 ± 9e-05 | 0.000502 ± 9.7e-05 | –
30 | A15U G41U G66U C70U | 4.78e-05 ± 1.4e-05 | – | –
31 | G13U A15C C58G | 0.00154 ± 0.00048 | 7.7e-05 ± 2.3e-05 | 8.16e-05 ± 1.4e-05
32 | G29C G38U A39U C50A | < 1e-05 | < 1e-05 | –
33 | U30A G38A C50A G66U | < 1e-05 | – | –
34 | C16G A33U G37U C68G C71U | 8.54e-05 ± 3.1e-05 | – | –
35 | A12G C34G U47C | < 1e-05 | – | –
36 | U31G G60U U65A | < 1e-05 | – | –
37 | G29U A53C G62C | < 1e-05 | – | –
38 | C11U A14G A39C | 0.000206 ± 5.2e-05 | 0.000528 ± 0.00014 | –
39 | A15G A48U U54A | 0.000159 ± 3.2e-05 | 0.000106 ± 4.2e-05 | –
40 | C11U U56A C70G | 0.000217 ± 5.8e-05 | 0.000145 ± 3e-05 | –
41 | C11U A15C U31C | 6.01e-05 ± 2.1e-05 | 0.000159 ± 5e-05 | –
42 | A14G G32C U45A C70G | < 1e-05 | – | –
43 | A33G G60C C68G | < 1e-05 | – | –
44 | A12G A33C C50A C68G | 0.000144 ± 6.5e-05 | 0.00016 ± 6.5e-05 | –

Row | Variant | self-cleavage kobs at 640 uM GlcN6P (glucosamine-6-phosphate [1]) [s⁻¹] | self-cleavage kobs at 2500 uM GlcN6P (glucosamine-6-phosphate [2]) [s⁻¹] | self-cleavage kobs at 10000 uM GlcN6P (glucosamine-6-phosphate [3]) [s⁻¹]
45 | A24C A52U G59A | < 1e-05 | – | < 1e-05
46 | C11A A33G G63A G66U | < 1e-05 | – | –
47 | G13A C68G C71G | 0.000118 ± 5e-05 | 0.000141 ± 3.4e-05 | –
48 | A14C U49G U54G C68G | 7.91e-05 ± 3.6e-05 | – | –
49 | U30C U31C G59U C61G C70G | < 1e-05 | – | –
50 | G29C U55G | 0.000107 ± 1.3e-05 | 0.000164 ± 2.5e-05 | 0.000757 ± 9.6e-05
51 | U30G A36U A42C A64U C67G | < 1e-05 | < 1e-05 | –
52 | C11A G59A C61G C70A | 0.000163 ± 7.6e-05 | – | –
53 | G32C A36G G37U | < 1e-05 | – | –
54 | C11G G13A C70G | 0.000406 ± 0.00015 | 6.69e-05 ± 3.1e-05 | –
55 | G29C A39C C61G | < 1e-05 | – | –
56 | C11G G41U A48G A52C | < 1e-05 | < 1e-05 | –
57 | A33C G38C G51C A64C | < 1e-05 | – | < 1e-05
58 | A15U U55C C70U | 4.5e-05 ± 2.2e-05 | 9.45e-05 ± 3.3e-05 | –
59 | G29A G32A U57C U69C | 9.71e-05 ± 3.8e-05 | – | –
60 | C16G A39G C71A | 0.000265 ± 9.1e-05 | 0.000286 ± 0.00013 | –
61 | G29C U30C U49G | < 1e-05 | – | < 1e-05
62 | G32U G35C U46A C67G C68A | 0.000467 ± 0.00023 | – | –
63 | G29A U49A A53G C68A | 7.05e-05 ± 2.9e-05 | – | –
64 | G29U G32A G44A A64U | < 1e-05 | – | –
65 | G29U U56C C61G | < 1e-05 | – | –
